The results in this text go back to publication PMC7060239.

This assay deals with human DNMT1 RFTS domain, residues 351–600 (human) (UniProt P26358). Put plainly: ITC; hRFTS and ubiquitylated hPAF15_(2-30) analogs; VP-ITC; 10 mM HEPES-NaOH (pH 7.5), 150 mM NaCl, 10 μM zinc acetate; one-site model; c value 10,000 for hPAF15_(2-30)Ub2. Background: Isothermal titration calorimetry measures the heat released or taken up as one component is titrated into another.
Sequence of human DNMT1 RFTS domain, residues 351–600 (human) (P26358 351-600): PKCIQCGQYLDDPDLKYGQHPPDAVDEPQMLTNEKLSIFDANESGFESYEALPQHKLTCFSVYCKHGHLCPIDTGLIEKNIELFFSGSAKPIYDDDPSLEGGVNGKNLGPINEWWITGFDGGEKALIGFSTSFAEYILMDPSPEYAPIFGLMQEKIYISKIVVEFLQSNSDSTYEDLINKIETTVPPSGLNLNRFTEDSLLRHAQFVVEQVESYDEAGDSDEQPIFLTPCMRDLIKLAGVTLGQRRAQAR

In the case of “hPAF15_(2-30)Ub2, disulfide-linked dual mono-ubiquitylated analog of human PAF15 (residues 2–30) (from UniProt Q15004 2-30)”, the Kd (in general, the equilibrium constant for the complex coming apart) worked out at 1.4 nM and the stoichiometry N (in general, a count of units in the complex or per binding partner) was 1.
Regarding “hPAF15_(2-30)K15Ub, disulfide-linked mono-ubiquitylated analog (from UniProt Q15004 2-30)”, the Kd came out at 1200 nM.
